T1: human FcγRIa (human, UniProt P12314)
T1 chain: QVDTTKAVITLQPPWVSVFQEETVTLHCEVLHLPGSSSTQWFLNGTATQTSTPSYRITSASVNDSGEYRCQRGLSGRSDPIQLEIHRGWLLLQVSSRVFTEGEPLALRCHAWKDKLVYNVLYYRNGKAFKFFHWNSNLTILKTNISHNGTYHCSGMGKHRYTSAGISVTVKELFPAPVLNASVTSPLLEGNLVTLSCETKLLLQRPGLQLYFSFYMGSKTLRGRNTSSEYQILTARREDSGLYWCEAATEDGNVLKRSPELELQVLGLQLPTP

T2: human FcγRIIa R131 (human, UniProt P12318)
T2 chain: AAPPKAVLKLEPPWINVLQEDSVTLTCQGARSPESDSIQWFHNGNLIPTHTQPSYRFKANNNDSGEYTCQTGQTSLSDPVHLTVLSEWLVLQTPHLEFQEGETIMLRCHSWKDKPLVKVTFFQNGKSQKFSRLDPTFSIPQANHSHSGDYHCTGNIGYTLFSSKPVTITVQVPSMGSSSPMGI


How the values were obtained:
human FcγRIa = target: T1, human FcγRIa; assay: SPR
human FcγRIIa R131 = target: T2, human FcγRIIa R131; assay: SPR

Row | Kd (human FcγRIa) [nM] | Kd (human FcγRIIa R131) [nM] | Binder
1 | 20 |  | IL6R-BP220 (antibody) chain 1: QVQLQESGPGLVKPSETLSLTCAVSGHSISHDHAWSWVRQPPGEGLEWIGFISYSGITNYNPSLQGRVTISRDNSKNTLYLQMNSLRAEDTAVYYCARSLARTTAMDYWGEGTLVTVSSASTKGPSVFPLAPSSKSTSGGTAALGCLVKDYFPEPVTVSWNSGALTSGVHTFPAVLQSSGLYSLSSVVTVPSSSLGTQTYICNVNHKPSNTKVDKKVEPKSCDKTHTCPPCPAPDLLGDDSVFLFPPKPKDTLMISRTPEVTCVVVDVSDEDGEVKFNWYVDGVEVHNAKTKPREEQDNSTYRVVSVLTVLHQDWLNGKEYKCKVSNKALPKPIEKTISKAKGQPREPQVYTLPPSRDELTKNQVSLTCLVKGFYPSDIAVEWESNGQPENNYKTTPPVLDSDGSFFLYSKLTVDKSRWQQGNVFSCSVMHEALHNHYTQESLSLSP chain 2: not shown
2 |  | 700 | IL6R-BP348 (antibody) chain 1: QVQLQESGPGLVKPSETLSLTCAVSGHSISHDHAWSWVRQPPGEGLEWIGFISYSGITNYNPSLQGRVTISRDNSKNTLYLQMNSLRAEDTAVYYCARSLARTTAMDYWGEGTLVTVSSASTKGPSVFPLAPSSKSTSGGTAALGCLVKDYFPEPVTVSWNSGALTSGVHTFPAVLQSSGLYSLSSVVTVPSSSLGTQTYICNVNHKPSNTKVDKKVEPKSCDKTHTCPPCPAPDLLGDDSVFLFPPKPKDTLMISRTPEVTCVVVDVAEEDGEVKFNWYVDGVEVHNAKTKPREEQYNSTYRVVSVLTVLHQDWLNGKEYKCKVSNKALPAPIEKTISKAKGQPREPQVYTLPPSRDELTKNQVSLTCLVKGFYPSDIAVEWESNGQPENNYKTTPPVLDSDGSFFLYSKLTVDKSRWQQGNVFSCSVMHEALHNHYTQESLSLSP chain 2: not shown
3 | 70 |  | IL6R-BP233 (antibody) chain 1: QVQLQESGPGLVKPSETLSLTCAVSGHSISHDHAWSWVRQPPGEGLEWIGFISYSGITNYNPSLQGRVTISRDNSKNTLYLQMNSLRAEDTAVYYCARSLARTTAMDYWGEGTLVTVSSASTKGPSVFPLAPSSKSTSGGTAALGCLVKDYFPEPVTVSWNSGALTSGVHTFPAVLQSSGLYSLSSVVTVPSSSLGTQTYICNVNHKPSNTKVDKKVEPKSCDKTHTCPPCPAPEYLGDDSVFLFPPKPKDTLMISRTPEVTCVVVDVSHEDGEVKFNWYVDGVEVHNAKTKPREEQYNSTYRVVSVLTVLHQDWLNGKEYKCKVSNKALPKPIEKTISKAKGQPREPQVYTLPPSRDELTKNQVSLTCLVKGFYPSDIAVEWESNGQPENNYKTTPPVLDSDGSFFLYSKLTVDKSRWQQGNVFSCSVMHEALHNHYTQESLSLSP chain 2: not shown
4 | 7 |  | IL6R-BP249 (antibody) chain 1: QVQLQESGPGLVKPSETLSLTCAVSGHSISHDHAWSWVRQPPGEGLEWIGFISYSGITNYNPSLQGRVTISRDNSKNTLYLQMNSLRAEDTAVYYCARSLARTTAMDYWGEGTLVTVSSASTKGPSVFPLAPSSKSTSGGTAALGCLVKDYFPEPVTVSWNSGALTSGVHTFPAVLQSSGLYSLSSVVTVPSSSLGTQTYICNVNHKPSNTKVDKKVEPKSCDKTHTCPPCPAPDYLGDDSVFLFPPKPKDTLMISRTPEVTCVVVDVSDEDGEVKFNWYVDGVEVHNAKTKPREEQDNSTYRVVSVLTVLHQDWLNGKEYKCKVSNKALPRPIEKTISKAKGQPREPQVYTLPPSRDELTKNQVSLTCLVKGFYPSDIAVEWESNGQPENNYKTTPPVLDSDGSFFLYSKLTVDKSRWQQGNVFSCSVMHEALHNHYTQESLSLSP chain 2: not shown
5 | 8 |  | IL6R-BP246 (antibody) chain 1: QVQLQESGPGLVKPSETLSLTCAVSGHSISHDHAWSWVRQPPGEGLEWIGFISYSGITNYNPSLQGRVTISRDNSKNTLYLQMNSLRAEDTAVYYCARSLARTTAMDYWGEGTLVTVSSASTKGPSVFPLAPSSKSTSGGTAALGCLVKDYFPEPVTVSWNSGALTSGVHTFPAVLQSSGLYSLSSVVTVPSSSLGTQTYICNVNHKPSNTKVDKKVEPKSCDKTHTCPPCPAPDLLGDDSVFLFPPKPKDTLMISRTPEVTCVVVDVQDEDGEVKFNWYVDGVEVHNAKTKPREEQDNSTYRVVSVLTVLHQDWLNGKEYKCKVSNAALPRPIEKTISKAKGQPREPQVYTLPPSRDELTKNQVSLTCLVKGFYPSDIAVEWESNGQPENNYKTTPPVLDSDGSFFLYSKLTVDKSRWQQGNVFSCSVMHEALHNHYTQESLSLSP chain 2: not shown
6 |  | 30000 | IL6R-BP514 (antibody) chain 1: QVQLQESGPGLVKPSETLSLTCAVSGHSISHDHAWSWVRQPPGEGLEWIGFISYSGITNYNPSLQGRVTISRDNSKNTLYLQMNSLRAEDTAVYYCARSLARTTAMDYWGEGTLVTVSSASTKGPSVFPLAPSSKSTSGGTAALGCLVKDYFPEPVTVSWNSGALTSGVHTFPAVLQSSGLYSLSSVVTVPSSSLGTQTYICNVNHKPSNTKVDKKVEPKSCDKTHTCPPCPAPDLLGDDSVFLFPPKPKDTLMISRTPEVTCVVVDVSEEDGFVKFNWYVDGVEVHNAKTKPREEQYNSTYRVVSVLTVLHQDWLNGKEYKCKVSNKALPAPIEKTISKAKGQPREPQVYTLPPSRDELTKNQVSLTCLVKGFYPSDIAVEWESNGQPENNYKTTPPVLDSDGSFFLYSKLTVDKSRWQQGNVFSCSVMHEALHNHYTQESLSLSP chain 2: not shown
7 |  | 2100 | IL6R-BP517 (antibody) chain 1: QVQLQESGPGLVKPSETLSLTCAVSGHSISHDHAWSWVRQPPGEGLEWIGFISYSGITNYNPSLQGRVTISRDNSKNTLYLQMNSLRAEDTAVYYCARSLARTTAMDYWGEGTLVTVSSASTKGPSVFPLAPSSKSTSGGTAALGCLVKDYFPEPVTVSWNSGALTSGVHTFPAVLQSSGLYSLSSVVTVPSSSLGTQTYICNVNHKPSNTKVDKKVEPKSCDKTHTCPPCPAPDLLGDDSVFLFPPKPKDTLMISRTPEVTCVVVDVSEEDGIVKFNWYVDGVEVHNAKTKPREEQYNSTYRVVSVLTVLHQDWLNGKEYKCKVSNKALPAPIEKTISKAKGQPREPQVYTLPPSRDELTKNQVSLTCLVKGFYPSDIAVEWESNGQPENNYKTTPPVLDSDGSFFLYSKLTVDKSRWQQGNVFSCSVMHEALHNHYTQESLSLSP chain 2: not shown
8 |  | 3000 | IL6R-BP520 (antibody) chain 1: QVQLQESGPGLVKPSETLSLTCAVSGHSISHDHAWSWVRQPPGEGLEWIGFISYSGITNYNPSLQGRVTISRDNSKNTLYLQMNSLRAEDTAVYYCARSLARTTAMDYWGEGTLVTVSSASTKGPSVFPLAPSSKSTSGGTAALGCLVKDYFPEPVTVSWNSGALTSGVHTFPAVLQSSGLYSLSSVVTVPSSSLGTQTYICNVNHKPSNTKVDKKVEPKSCDKTHTCPPCPAPDLLGDDSVFLFPPKPKDTLMISRTPEVTCVVVDVSEEDGMVKFNWYVDGVEVHNAKTKPREEQYNSTYRVVSVLTVLHQDWLNGKEYKCKVSNKALPAPIEKTISKAKGQPREPQVYTLPPSRDELTKNQVSLTCLVKGFYPSDIAVEWESNGQPENNYKTTPPVLDSDGSFFLYSKLTVDKSRWQQGNVFSCSVMHEALHNHYTQESLSLSP chain 2: not shown
9 | 3 |  | IL6R-BP243 (antibody) chain 1: QVQLQESGPGLVKPSETLSLTCAVSGHSISHDHAWSWVRQPPGEGLEWIGFISYSGITNYNPSLQGRVTISRDNSKNTLYLQMNSLRAEDTAVYYCARSLARTTAMDYWGEGTLVTVSSASTKGPSVFPLAPSSKSTSGGTAALGCLVKDYFPEPVTVSWNSGALTSGVHTFPAVLQSSGLYSLSSVVTVPSSSLGTQTYICNVNHKPSNTKVDKKVEPKSCDKTHTCPPCPAPDYLGDDSVFLFPPKPKDTLMISRTPEVTCVVVDVSDEDGEVKFNWYVDGVEVHNAKTKPREEQYNSTYRVVSVLTVLHQDWLNGKEYKCKVSNKALPRPIEKTISKAKGQPREPQVYTLPPSRDELTKNQVSLTCLVKGFYPSDIAVEWESNGQPENNYKTTPPVLDSDGSFFLYSKLTVDKSRWQQGNVFSCSVMHEALHNHYTQESLSLSP chain 2: not shown

Source: patent US11827699 (dated 2023)
